The values that follow come from article PMC5658772 (Emerging Microbes & Infections, 2017).

By Kd is commonly meant the equilibrium constant for the complex coming apart. Lower therefore signals higher affinity. What is called koff is a measure of how fast the partners let go of each other. Low values mean slow dissociation, high ones fast dissociation.

This assay has as its target T1, ZIKV envelope protein domain III-hFc fusion protein (ZIKV-DIII-hFc) (Zika virus strain MR766, UniProt Q32ZE1).
T1 construct: source: 293 FreeStyle, transient, purified from conditioned culture medium
The assay is described as follows: BLI; Octet-Red96, 37 °C; […] (30 μg/mL, sodium acetate pH 5.0) […]; association 300 s, dissociation 1500 s; 1:1 Langmuir model; […]. The settings on record: both partners purified.

B1: m302 IgG1 (antibody, V domains shown)
VH: EVQLVQSGGGLVKPGRSLRLSCAASGFTFSSYAMHWVRQAPGKGLEWVAVISYDGSNKYYADSVKGRFTISRDNSKNTLYLQMNSLRAEDTAVYYCAREIGDYYYYGMDVWGQGTLVTVSS
VL: EIVMTQSPATLSLSPGERATLSCRASQSVSSYLAWYQQKPGQAPRLLIYDASNRATGIPARFSGSGSGTDFTLTISSLQPEDFATYYCQQSYSTPLTFGGGTKVEIK
notes: also called m302 mAb; IgG m302; source: Expi293, transient, purified (protein G)
Molecule B1 came in with a Kd of 47 nM and a koff of 0.002 s⁻¹.

B2: m301 IgG1 (antibody, V domains shown)
VH: EVQLVQSGGGLVKPGGSLRLSCAASGFTFSSYGMHWVRQAPGKGLEWVAVISYDGSNKYYADSVKGRFTISRDNSKNTLYLQMNSLRAEDTAVYYCAKEVGRSYFDYWGQGTLVTVSS
VL: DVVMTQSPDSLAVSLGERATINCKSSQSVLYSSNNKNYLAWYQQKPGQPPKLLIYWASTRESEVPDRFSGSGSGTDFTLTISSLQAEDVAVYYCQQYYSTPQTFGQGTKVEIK
notes: also called m301 mAb; IgG m301; source: Expi293, transient, purified (protein G)
In the case of B2, the Kd came to 0.2 nM and the koff is 4e-05 s⁻¹.
